The record followed here is article PMC5436001.

This assay has as its target mMyrf N-terminal fragment (from N-terminally tagged wild-type mouse Myrf) (mouse). Nature of the assay: co-IP.

“mMyrf N-terminal fragment (from N-terminally tagged wild-type mouse Myrf) (domain or fragment)” yielded a stoichiometry N of 3.

As a reminder, the stoichiometry N is a count of units in the complex or per binding partner.
